Measurements taken from the DeepSol protein solubility set.

Assay: soluble on expression in E. coli; label from the status in PepcDB or PDB records

Row | Sequence | soluble on expression in E. coli
1 | VAEKPYLKDPEVAAGYHRVAKRELPEPKIMEVPQRFAAYVRHEGYNRSIRNAWLILKAWASSENRDFSVQYGLHHSNPAWVELDKCRYVACMAIDKPLKVRGVVNQMTIPGGLHAVFRLTGVYGELLPQLSMVLEKWLPNSGFKQRSTPAYVHYHKNHFLSHDEAFELDFYLPISFF | not soluble
2 | MAHHHHHHMRRVVITGLGLVSPLASGVEETWKRLLAGESGARRVTEFEVDDLACQIACRIPVGDGTNGTFNPDLHMDPKEQRKVDPFIVYAVGAADQALDDAGWHPENDEDQVRTGVLIGSGIGGIEGIVEAGYTLRDKGPRRISPFFIPGRLINLASGHVSIKHKLRGPNHSVVTACATGTHAIGDAARLIAFGDADVMVAGGTESPVSRISLAGFAACKALSTERNDDPTAASRPYDEDRDGFVMGEGAGIVVLEELEHALARGAKIYAEVIGYGMSGDAFHITAPTESGEGAQRCMVAALKRAGIVPDEIDYINAHGTSTMADTIELGAVERVVGEAAAKISMSSTKSSIGHLLGAAGAAEAVFSTLAIRDNIAPATLNLDNPAAQTRIDLVPHKPRERKIDVALSNSFGFGGTNASLVLRRYTA | soluble
3 | MGSDKIHHHHHHMSIFFLNNGIMNILQEYSVLNAKVIIYEENGIGYYKVNEPNLDQNEIEILNSILEYIYSTPSVPNIEETVVKILKNKGISDQGIIEKIIYYLRKRIGYDELTVPLADPYVEEIECKGFSYPVTVVHRIVTRFPRLYTNIILEQEDHVLKVIEKLANKADKPVSIAKPYLEFSLPEGHRVAATVSREVSLPGSTFDIRKFPLKPISPISLIKNESISSLMLAYIWFLLDYKPFFLIIGSTGSGKTTLLNSILSMINPFFKVITIEDTPEINIIHDNWIRFFARQSISSQFEVSLMDLAKLSLRYRPDYLVIGEIRGKEIEALVHASASGHGSLATFHAGNPHEALTRLLSLLNKDVAKLFLQNLWGIIVLGTLRDRNGNIRRIIRSIYEIVYTRGKLRFRPVLRWSFSSNTFMPNNIDDLIKRSYRISYISKTYEIPISEITKEISNRVKTLNNFVSNNILDLEEFSVYLKKISQGDKVETKAI | not soluble
4 | MQNETINLKQHLAAIKEYWQPEIINRHGFQFHLVKLLGDYGWHTHGYSDKVLFAVEGDMAVDFADGGSMTIREGEMAVVPKSVSHRPRSENGCSLVLIELSDPSEAV | soluble
5 | MGSDKIHHHHHHMTEQATTTDELAFTRPYGEQEKQILTAEAVEFLTELVTHFTPQRNKLLAARIQQQQDIDNGTLPDFISETASIRDADWKIRGIPADLEDRRVEITGPVERKMVINALNANVKVFMADFEDSLAPDWNKVIDGQINLRDAVNGTISYTNEAGKIYQLKPNPAVLICRVRGLHLPEKHVTWRGEAIPGSLFDFALYFFHNYQALLAKGSGPYFYLPKTQSWQEAAWWSEVFSYAEDRFNLPRGTIKATLLIETLPAVFQMDEILHALRDHIVGLNCGRWDYIFSYIKTLKNYPDRVLPDRQAVTMDKPFLNAYSRLLIKTCHKRGAFAMGGMAAFIPSKDEEHNNQVLNKVKADKSLEANNGHDGTWIAHPGLADTAMAVFNDILGSRKNQLEVMREQDAPITADQLLAPCDGERTEEGMRANIRVAVQYIEAWISGNGCVPIYGLMEDAATAEISRTSIWQWIHHQKTLSNGKPVTKALFRQMLGEEMKVIASELGEERFSQGRFDDAARLMEQITTSDELIDFLTLPGYRLLA | not soluble
6 | MRSAIAAPILFLLVSFFVQECESVGFAPELYCGLENCYDVLEVNREEFDKQKLAKAYRALARKHHPDRVKNKEEKLLAEERFRVIATAYETLKDDEAKTNYDYYLDHPDQRFYNYYQYYRLRAAPKVDL | not soluble
7 | DLAKEGKLHSIVDSLFYSRLYKKEKRVYGDTDYDRFDFFTNRFLQSFNKAAFDDFFSSRVEYPNQIKILFQMFFTKMEKLKTD | not soluble
8 | MYDVTIIGAGVSSIFMAYSLAKSNKKVLILDKGKALEDRHCPLDEGKVCNCTTCDKYFGFGGLGKSEGKFNYTNGFGGELEKKVGKEGFLQLMAEVDEILCQFGGSSVSKYSTENSSLTKRAEACGLQMLTTEVRHLGTTLSSNIFQQLYEFLLTKIKIQFHIDVQHILKQEDHFTIDTNQGTVQTKQLVFATGRSGADWLKEMCSSLNISQEQTRVDLGIRVEMKEHQLRSILKDTFETKLSYQGEHFTATTYCMNPKGRIIRKYEEGLVMPDGQNFREQGTGTSNLNFTLFIPSYFPTLKEANVYASSIIKGINQGRDRIVIQRLEDLLKKQPTAENSMEHSRIQPTLQGDYGDLNQEIPQLYIEGLKEFLLRLEQFIQEPIDQHTLLYGIDGKFYAPTIKINNHFETSIHGLFLIGDCSGVTHSLSQAAASGLYVGKYLSDILEHHHHHH | soluble
